Laboratory results from patent US20120190819A1 (MEDICAL RESEARCH COUNCIL, published 2012).

Biological target: T1, SH3 domain of yeast Sho1p (yeast two-hybrid bait, pEG202-Sho1-SH3) (yeast, UniProt P40073 300-367, limits assumed)
T1 construct: domain: SH3 domain; also called Sho1p SH3 domain
Assay: yeast two-hybrid, Sho1-SH3 binding
Description: We noted that other peptides containing a leucine at −5 (such as Apt03 and 05) were not inhibitory. Unlike AptA, these two peptide aptamers are constrained. To test the idea that constraint prevents the PPII helix of peptide aptamers such as Apt03 and 05 from productive interaction with Sho1 SH3, we replaced the C-terminal stop codon of AptA with codons encoding each amino acid residue in turn to make AptA a full-length peptide aptamer constrained in STM. After re-constraint, only one of the seven amino acid residues P, V, C, D, H, F and W at +5 allow binding to Sho1 SH3 in the context of a constrained protein (Table IV). This contrasts with the findings of Feng et al [Feng S, Chen J K, Yu H, Simon J A, Schreiber S L. 1994. Two binding orientations for peptides to the Src SH3 domain: development of a general model for SH3-ligand interactions. Science. 266: 1241-7] and Rickles et al [Rickles R J, Botfield M C, Zhou X M, Henry P A, Brugge J S, Zoller M J. 1995. Phage display selection of ligand residues important for Src homology 3 domain binding specificity. Proc Natl Acad Sci USA. […] In addition, none of the constrained AptA variants show the ability to inhibit Pbs2-Hog1 activation (Table IV). […] They further indicate that in the context of STM, the presence of one of the 7 permissive residues at position +5 either allows the formation of a left handed type II polyproline helix or allows interaction at a surface on Sho1 distinct from the SH3 domain.

T1 sequence (P40073 300-367 limits assumed): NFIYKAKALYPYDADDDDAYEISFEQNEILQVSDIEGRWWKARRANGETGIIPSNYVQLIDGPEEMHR

B1: re-constrained AptA, RLNKPLPSLPVH in full-length STM (designed binder)
chain: MIPWGLSEAKPATPEIQEIVDKVKPQLEEKTNETYGKLEAVQYKTQVDAGTNYYIKVRAGDNKYMHLKVFNGPRLNKPLPSLPVHGPPGQNEDLVLTGYQVDKNKDDELTGF
notes: Stop codon of AptA replaced, making a full-length aptamer constrained in STM
Q: Does B1 bind?
A: binds

B2: re-constrained AptA, RLNKPLPSLPVF in full-length STM (designed binder)
chain: MIPWGLSEAKPATPEIQEIVDKVKPQLEEKTNETYGKLEAVQYKTQVDAGTNYYIKVRAGDNKYMHLKVFNGPRLNKPLPSLPVFGPPGQNEDLVLTGYQVDKNKDDELTGF
notes: as for B1
Q: Does B2 bind?
A: binds

B3: re-constrained AptA, RLNKPLPSLPVA in full-length STM (designed binder)
chain: MIPWGLSEAKPATPEIQEIVDKVKPQLEEKTNETYGKLEAVQYKTQVDAGTNYYIKVRAGDNKYMHLKVFNGPRLNKPLPSLPVAGPPGQNEDLVLTGYQVDKNKDDELTGF
notes: as for B1
Q: Does B3 bind?
A: no binding

B4: re-constrained AptA, RLNKPLPSLPVK in full-length STM (designed binder)
chain: MIPWGLSEAKPATPEIQEIVDKVKPQLEEKTNETYGKLEAVQYKTQVDAGTNYYIKVRAGDNKYMHLKVFNGPRLNKPLPSLPVKGPPGQNEDLVLTGYQVDKNKDDELTGF
notes: as for B1
Q: Does B4 bind?
A: binds

B5: re-constrained AptA, RLNKPLPSLPVE in full-length STM (designed binder)
chain: MIPWGLSEAKPATPEIQEIVDKVKPQLEEKTNETYGKLEAVQYKTQVDAGTNYYIKVRAGDNKYMHLKVFNGPRLNKPLPSLPVEGPPGQNEDLVLTGYQVDKNKDDELTGF
notes: as for B1
Q: Does B5 bind?
A: no binding

B6: re-constrained AptA, RLNKPLPSLPVL in full-length STM (designed binder)
chain: MIPWGLSEAKPATPEIQEIVDKVKPQLEEKTNETYGKLEAVQYKTQVDAGTNYYIKVRAGDNKYMHLKVFNGPRLNKPLPSLPVLGPPGQNEDLVLTGYQVDKNKDDELTGF
notes: as for B1
Q: Does B6 bind?
A: no binding

B7: re-constrained AptA, RLNKPLPSLPVM in full-length STM (designed binder)
chain: MIPWGLSEAKPATPEIQEIVDKVKPQLEEKTNETYGKLEAVQYKTQVDAGTNYYIKVRAGDNKYMHLKVFNGPRLNKPLPSLPVMGPPGQNEDLVLTGYQVDKNKDDELTGF
notes: as for B1
Q: Does B7 bind?
A: no binding

B8: re-constrained AptA, RLNKPLPSLPVN in full-length STM (designed binder)
chain: MIPWGLSEAKPATPEIQEIVDKVKPQLEEKTNETYGKLEAVQYKTQVDAGTNYYIKVRAGDNKYMHLKVFNGPRLNKPLPSLPVNGPPGQNEDLVLTGYQVDKNKDDELTGF
notes: as for B1
Q: Does B8 bind?
A: binds

B9: re-constrained AptA, RLNKPLPSLPVI in full-length STM (designed binder)
chain: MIPWGLSEAKPATPEIQEIVDKVKPQLEEKTNETYGKLEAVQYKTQVDAGTNYYIKVRAGDNKYMHLKVFNGPRLNKPLPSLPVIGPPGQNEDLVLTGYQVDKNKDDELTGF
notes: as for B1
Q: Does B9 bind?
A: no binding

B10: re-constrained AptA, RLNKPLPSLPVG in full-length STM (designed binder)
chain: MIPWGLSEAKPATPEIQEIVDKVKPQLEEKTNETYGKLEAVQYKTQVDAGTNYYIKVRAGDNKYMHLKVFNGPRLNKPLPSLPVGGPPGQNEDLVLTGYQVDKNKDDELTGF
notes: as for B1
Q: Does B10 bind?
A: no binding

B11: re-constrained AptA, RLNKPLPSLPVC in full-length STM (designed binder)
chain: MIPWGLSEAKPATPEIQEIVDKVKPQLEEKTNETYGKLEAVQYKTQVDAGTNYYIKVRAGDNKYMHLKVFNGPRLNKPLPSLPVCGPPGQNEDLVLTGYQVDKNKDDELTGF
notes: as for B1
Q: Does B11 bind?
A: binds

B12: re-constrained AptA, RLNKPLPSLPVP in full-length STM (designed binder)
chain: MIPWGLSEAKPATPEIQEIVDKVKPQLEEKTNETYGKLEAVQYKTQVDAGTNYYIKVRAGDNKYMHLKVFNGPRLNKPLPSLPVPGPPGQNEDLVLTGYQVDKNKDDELTGF
notes: as for B1
Q: Does B12 bind?
A: binds

B13: re-constrained AptA, RLNKPLPSLPVR in full-length STM (designed binder)
chain: MIPWGLSEAKPATPEIQEIVDKVKPQLEEKTNETYGKLEAVQYKTQVDAGTNYYIKVRAGDNKYMHLKVFNGPRLNKPLPSLPVRGPPGQNEDLVLTGYQVDKNKDDELTGF
notes: as for B1
Q: Does B13 bind?
A: no binding

B14: re-constrained AptA, RLNKPLPSLPVQ in full-length STM (designed binder)
chain: MIPWGLSEAKPATPEIQEIVDKVKPQLEEKTNETYGKLEAVQYKTQVDAGTNYYIKVRAGDNKYMHLKVFNGPRLNKPLPSLPVQGPPGQNEDLVLTGYQVDKNKDDELTGF
notes: as for B1
Q: Does B14 bind?
A: no binding
